Measurements taken from US20230348603A1 (VERSEAU THERAPEUTICS, published 2023).

Columns and labels:
Human VSIG4-L-His [1] = molecular target: T1, Human VSIG4-L-His (human, UniProt Q9Y279 20-283); test: BLI (Octet), IgG on AHC sensor, antigen 100 nM
T1 construct: long isoform ECD with His tag; also called hVSIG4-L
T1 sequence: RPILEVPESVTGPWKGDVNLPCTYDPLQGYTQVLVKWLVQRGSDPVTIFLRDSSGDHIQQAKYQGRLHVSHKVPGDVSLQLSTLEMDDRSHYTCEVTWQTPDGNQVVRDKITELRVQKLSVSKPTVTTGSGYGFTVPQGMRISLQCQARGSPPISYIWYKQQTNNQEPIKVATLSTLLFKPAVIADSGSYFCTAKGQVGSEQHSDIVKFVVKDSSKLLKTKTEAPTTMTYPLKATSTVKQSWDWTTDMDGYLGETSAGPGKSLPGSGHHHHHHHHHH

Human VSIG4-S-His [2] = molecular target: T2, Human VSIG4-S-His (human, UniProt Q9Y279 20-283); test: BLI (Octet), IgG on AHC sensor, antigen 100 nM
T2 construct: short isoform ECD with His tag; also called hVSIG4-S; VISG4-S-His
T2 sequence: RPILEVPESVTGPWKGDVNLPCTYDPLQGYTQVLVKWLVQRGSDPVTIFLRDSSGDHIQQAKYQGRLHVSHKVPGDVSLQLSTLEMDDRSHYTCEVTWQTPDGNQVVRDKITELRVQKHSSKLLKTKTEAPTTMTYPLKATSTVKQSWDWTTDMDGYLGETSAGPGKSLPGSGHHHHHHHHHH

[3] = molecular target: T3, Cynomolgus Monkey VSIG4-L-His (cynomolgus monkey); test: BLI (Octet), IgG on AHC sensor, antigen 100 nM
T3 construct: ECD with His tag; also called cyVSIG4-L; cyno VSIG4-L-His
T3 chain: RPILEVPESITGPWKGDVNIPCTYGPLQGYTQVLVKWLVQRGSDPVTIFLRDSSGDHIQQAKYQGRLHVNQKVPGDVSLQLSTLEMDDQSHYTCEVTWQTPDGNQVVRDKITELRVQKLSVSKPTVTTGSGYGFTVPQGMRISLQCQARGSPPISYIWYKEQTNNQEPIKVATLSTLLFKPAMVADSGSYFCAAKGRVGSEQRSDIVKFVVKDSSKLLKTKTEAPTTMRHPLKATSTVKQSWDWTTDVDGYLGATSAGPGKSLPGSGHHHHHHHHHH

Human VSIG4-L-Fc [4] = molecular target: T4, Human VSIG4-L-Fc (human); test: ELISA, IgG 50 nM on coated antigen;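 note: Mouse-human chimeric IgG4 antibodies incubated 1 h on plate-coated VSIG4 proteins, bound IgG detected with HRP-labelled anti-human IgG, irrelevant antibody and protein as specificity controls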
T4 construct: also called hVSIG4-L-Fc; hVSIG4-L

Human VSIG4-S-Fc = molecular target: T5, Human VSIG4-S-Fc (human); test: ELISA, IgG 50 nM on coated antigen;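 note: Mouse-human chimeric IgG4 antibodies incubated 1 h on plate-coated VSIG4 proteins, bound IgG detected with HRP-labelled anti-human IgG, irrelevant antibody and protein as specificity controls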
T5 construct: short isoform ECD fused to human Fc1; also called hVSIG4-S

[5] = molecular target: T3, Cynomolgus Monkey VSIG4-L-His; test: ELISA, IgG 50 nM on coated antigen;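 note: Mouse-human chimeric IgG4 antibodies incubated 1 h on plate-coated VSIG4 proteins, bound IgG detected with HRP-labelled anti-human IgG, irrelevant antibody and protein as specificity controls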
Mouse VSIG4-His = molecular target: T6, Mouse VSIG4-His (mouse); test: ELISA, IgG 50 nM on coated antigen;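 note: Mouse-human chimeric IgG4 antibodies incubated 1 h on plate-coated VSIG4 proteins, bound IgG detected with HRP-labelled anti-human IgG, irrelevant antibody and protein as specificity controls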
T6 construct: ECD with His tag; also called mVSIG4
T6 chain: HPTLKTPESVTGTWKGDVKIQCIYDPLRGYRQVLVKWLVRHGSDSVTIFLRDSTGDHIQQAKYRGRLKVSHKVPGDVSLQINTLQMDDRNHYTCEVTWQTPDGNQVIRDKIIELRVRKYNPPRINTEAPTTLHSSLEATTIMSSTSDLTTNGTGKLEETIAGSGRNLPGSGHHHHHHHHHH

[6] = molecular target: T7, Human VSIG4-L-CHO (human VSIG4 long isoform on CHO-K1 cells) (human, UniProt Q9Y279 20-399); test: flow cytometry (FJB), 200 nM mAb, huVSIG4-L CHO-K1 over parental CHO-K1
T7 construct: also called hVSIG4-L (flow cytometry)
T7 sequence: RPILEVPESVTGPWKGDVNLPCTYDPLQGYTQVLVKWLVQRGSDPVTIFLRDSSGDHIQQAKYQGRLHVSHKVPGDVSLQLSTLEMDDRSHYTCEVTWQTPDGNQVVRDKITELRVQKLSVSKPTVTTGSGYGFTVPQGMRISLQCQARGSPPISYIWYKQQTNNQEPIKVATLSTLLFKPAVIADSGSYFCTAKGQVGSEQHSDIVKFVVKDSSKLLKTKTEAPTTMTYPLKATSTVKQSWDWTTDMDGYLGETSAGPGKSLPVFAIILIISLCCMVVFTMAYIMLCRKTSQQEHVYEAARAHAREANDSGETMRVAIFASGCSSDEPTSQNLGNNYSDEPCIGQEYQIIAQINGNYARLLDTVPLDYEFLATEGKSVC

Human VSIG4-L-Fc [7] = molecular target: T4, Human VSIG4-L-Fc; test: BLI binning on hVSIG4-L-Fc, competitor 13H11 first;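 note: normalized to binding of second antibody without first competitor antibody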
Human VSIG4-L-Fc [8] = molecular target: T4, Human VSIG4-L-Fc; test: BLI binning on hVSIG4-L-Fc, competitor 15C03 first;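 note: normalized to binding of second antibody without first competitor antibody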
Human VSIG4-L-Fc [9] = molecular target: T4, Human VSIG4-L-Fc; test: BLI binning on hVSIG4-L-Fc, competitor 12A08 first;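 note: normalized to binding of second antibody without first competitor antibody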
Human VSIG4-L-Fc [10] = molecular target: T4, Human VSIG4-L-Fc; test: ligand competition ELISA (FJB), blocked ligand iC3b
Human VSIG4-L-Fc [11] = molecular target: T4, Human VSIG4-L-Fc; test: ligand competition ELISA (FJB), blocked ligand C3b
Human VSIG4-L-Fc [12] = molecular target: T4, Human VSIG4-L-Fc; test: BLI binning on hVSIG4-L-Fc, competitor 16E10 first;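 note: normalized to binding of second antibody without first competitor antibody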
[13] = molecular target: T7, Human VSIG4-L-CHO (human VSIG4 long …); test: flow cytometry (FJB), 200 nM mAb, huVSIG4-L CHO-K1 cells
Human VSIG4-L-Fc [14] = molecular target: T4, Human VSIG4-L-Fc; test: ligand blocking of C3b, IgG
[15] = molecular target: T7, Human VSIG4-L-CHO (human VSIG4 long …); test: flow cytometry, CHO-K1 cells expressing hVSIG4-L
Human VSIG4-L-Fc [16] = molecular target: T4, Human VSIG4-L-Fc; test: BLI binning on hVSIG4-L-Fc, competitor 14D12 first;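 note: normalized to binding of second antibody without first competitor antibody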
Human VSIG4-L-Fc [17] = molecular target: T4, Human VSIG4-L-Fc; test: BLI binning on hVSIG4-L-Fc, competitor 12A12 first;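 note: normalized to binding of second antibody without first competitor antibody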
Human VSIG4-L-Fc [18] = molecular target: T4, Human VSIG4-L-Fc; test: BLI binning on hVSIG4-L-Fc, competitor 14C05 first;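 note: normalized to binding of second antibody without first competitor antibody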
Human VSIG4-L-Fc [19] = molecular target: T4, Human VSIG4-L-Fc; test: BLI binning on hVSIG4-L-Fc, competitor 15C04 first;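 note: normalized to binding of second antibody without first competitor antibody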
Human VSIG4-L-His [20] = molecular target: T1, Human VSIG4-L-His; test: SPR (FJB)
[21] = molecular target: T3, Cynomolgus Monkey VSIG4-L-His; test: SPR (FJB)
Human VSIG4-L-Fc [22] = molecular target: T4, Human VSIG4-L-Fc; test: ligand blocking of iC3b, IgG
Human VSIG4-L-Fc [23] = molecular target: T4, Human VSIG4-L-Fc; test: BLI binning on hVSIG4-L-Fc, competitor 15A06 first;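 note: normalized to binding of second antibody without first competitor antibody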
Human VSIG4-L-Fc [24] = molecular target: T4, Human VSIG4-L-Fc; test: BLI binning on hVSIG4-L-Fc, competitor 16E03 first;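 note: normalized to binding of second antibody without first competitor antibody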
Human VSIG4-L-His [25] = molecular target: T1, Human VSIG4-L-His; test: BLI (Octet), mouse IgG on AMC sensor, antigen 100 nM;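 note: octet Red384 biolayer interferometry with immobilized mouse hybridoma antibodies, 300 s association then 300 s dissociation at 30 °C, isotype-control reference subtraction, 1:1 global fit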
Human VSIG4-S-His [26] = molecular target: T2, Human VSIG4-S-His; test: as above
[27] = molecular target: T3, Cynomolgus Monkey VSIG4-L-His; test: as above

T5 sequence (chain, as listed by the source limits assumed): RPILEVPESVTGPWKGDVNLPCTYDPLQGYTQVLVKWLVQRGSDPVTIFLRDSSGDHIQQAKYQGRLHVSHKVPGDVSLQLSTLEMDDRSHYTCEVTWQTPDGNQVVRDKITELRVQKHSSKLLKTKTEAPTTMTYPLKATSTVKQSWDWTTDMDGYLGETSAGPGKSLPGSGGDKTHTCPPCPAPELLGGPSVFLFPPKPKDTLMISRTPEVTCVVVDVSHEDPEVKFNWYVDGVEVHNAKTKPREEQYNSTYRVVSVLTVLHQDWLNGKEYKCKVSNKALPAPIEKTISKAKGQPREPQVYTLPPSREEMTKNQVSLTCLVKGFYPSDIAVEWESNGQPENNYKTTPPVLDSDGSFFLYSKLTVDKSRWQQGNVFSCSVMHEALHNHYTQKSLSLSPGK

B1: 12A08 mouse/human chimeric IgG4 (S228P) kappa (antibody, V domains shown)
VH: EVMLVESGGGLVKPGGSLKLSCAASGFTFDDFYMYWVRQTPEKRLEWVASISDGGTYTYYPDSVKGRFTISRDNAKNTLYLQLSSLKSEDTAMYYCARGVDKYYYAMDYWGQGTSVTVSS
VL: QILLTQSPAIMSASPGEKVTITCSASSSVSYMHWFQQKPGTSPKLWIYSTSNLASGVPARFSGSGSGTSYSLTISRMEAEDAATYYCQQRSSYPLTFGAGTKLELKR
- Kd (Human VSIG4-L-His [1]): 20.6 nM
- Kd (Human VSIG4-S-His [2]): 18.8 nM
- Kd [3]: 15.7 nM
- ELISA OD450 (Human VSIG4-L-Fc [4]): 4.44 OD450
- ELISA OD450 (Human VSIG4-S-Fc): 3.37 OD450
- ELISA OD450 [5]: 4.43 OD450
- ELISA OD450 (Mouse VSIG4-His): 0.056 OD450
- Binding (200 nM) Fold-Over-Parental [6]: 357 fold
- normalized maximum binding nm shift (Human VSIG4-L-Fc [7]): 0.69 normalized
- normalized maximum binding nm shift (Human VSIG4-L-Fc [8]): 0.89 normalized
- normalized maximum binding nm shift (Human VSIG4-L-Fc [9]): 0.1 normalized
- IC50 (Human VSIG4-L-Fc [10]): 0.4 nM
- IC50 (Human VSIG4-L-Fc [11]): 1 nM
- normalized maximum binding nm shift (Human VSIG4-L-Fc [12]): 0.44 normalized
- Binding (200 nM) MFI [13]: 121000 MFI
- Percent Blocking C3b (Human VSIG4-L-Fc [14]): 96%
- EC50 [15]: 6.8 nM
- normalized maximum binding nm shift (Human VSIG4-L-Fc [16]): 0.7 normalized
- normalized maximum binding nm shift (Human VSIG4-L-Fc [17]): 0.78 normalized
- normalized maximum binding nm shift (Human VSIG4-L-Fc [18]): 0.72 normalized
- normalized maximum binding nm shift (Human VSIG4-L-Fc [19]): 0.94 normalized
- Kd (Human VSIG4-L-His [20]): 6.7 nM
- Kd [21]: 3.9 nM
- Percent Blocking iC3b (Human VSIG4-L-Fc [22]): 98%
- normalized maximum binding nm shift (Human VSIG4-L-Fc [23]): 0.76 normalized
- normalized maximum binding nm shift (Human VSIG4-L-Fc [24]): 0.1 normalized

B2: 15C04 mouse/human chimeric IgG4 (S228P) kappa (antibody, V domains shown)
VH: QIQLQESGPSLVRPSQTLSLTCSVTGDSITSGYWNWIRKFPGDKLEYLGYISYSGFTYYNPSLKSRISITRDTSKNQYYLQLNSVTTEDTATYYCASSYYGSSLGFPYWGQGTLVTVSA
VL: DVVMTQTPLSLPVSLGDQASISCRSSQSLVHSNGNTYLHWYLQKPGQSPKLLIYKVSNRFSGVPDRFSGSGSGTDFTLKISRVEAEDLGVYFCSQSTHVPWTFGGGTKLEIKR
- Kd (Human VSIG4-L-His [1]): 25.4 nM
- Kd [3]: 183 nM
- ELISA OD450 (Human VSIG4-L-Fc [4]): 4.43 OD450
- ELISA OD450 (Human VSIG4-S-Fc): 3.28 OD450
- ELISA OD450 [5]: 4.53 OD450
- ELISA OD450 (Mouse VSIG4-His): 0.052 OD450
- Binding (200 nM) Fold-Over-Parental [6]: 73 fold
- normalized maximum binding nm shift (Human VSIG4-L-Fc [7]): 0.68 normalized
- normalized maximum binding nm shift (Human VSIG4-L-Fc [8]): 0.81 normalized
- normalized maximum binding nm shift (Human VSIG4-L-Fc [9]): 0.8 normalized
- IC50 (Human VSIG4-L-Fc [10]): 17 nM
- IC50 (Human VSIG4-L-Fc [11]): 19.7 nM
- normalized maximum binding nm shift (Human VSIG4-L-Fc [12]): 0.92 normalized
- Binding (200 nM) MFI [13]: 53200 MFI
- Percent Blocking C3b (Human VSIG4-L-Fc [14]): 93%
- EC50 [15]: 8.9 nM
- normalized maximum binding nm shift (Human VSIG4-L-Fc [16]): 0.72 normalized
- normalized maximum binding nm shift (Human VSIG4-L-Fc [17]): 0.82 normalized
- normalized maximum binding nm shift (Human VSIG4-L-Fc [18]): 0.72 normalized
- normalized maximum binding nm shift (Human VSIG4-L-Fc [19]): 0.16 normalized
- Kd (Human VSIG4-L-His [20]): 5.4 nM
- Kd [21]: 15.6 nM
- Percent Blocking iC3b (Human VSIG4-L-Fc [22]): 94%
- normalized maximum binding nm shift (Human VSIG4-L-Fc [23]): 0.08 normalized
- normalized maximum binding nm shift (Human VSIG4-L-Fc [24]): 0.74 normalized

B3: 13E11.A4 murine hybridoma antibody (antibody, V domains shown)
VH: EVQLVESGGALVKPGGSLKLSCVASRFNLNNCVMSWIRQTPEKRLEWVATIDSGSIYTYYPDSVKGRFTISRDNAKNTLYLQMSSLRSEDTAVYYCVRHIYGYDVVDNWGQGTTLTVAS
VL: DIVMTQSHKFMSTSVGDNVSITCKASQYVSNTVAWYQQKPGQSPKLLIYSASYRNTGVPDRFTGSGSGTNFTFTISNMQAEDLAFYYCQQHYTSPLTFGAGTKLELK
notes: murine IgG purified from hybridoma supernatant
- Kd (Human VSIG4-L-His [25]): 1.76 nM
- Kd (Human VSIG4-S-His [26]): 4.99 nM
- Kd [27]: 1.4 nM

B4: 14F8.H6 murine hybridoma antibody (antibody, V domains shown)
VH: EVHLVESGGALVKPGGSLKLSCTASGFTFSNSVMSWIRQTPEKRLEWVATIGSGGTYIYYPDSVKGRFTISRDNSKNTLFLQMTSLRSEDTALYYCARHIYGYDVVDYWGQGTTLTVST
VL: DIVMTQSHRFMSTSVGDRVSITCKASHDVSNVVAWYQQKPGQSPELLIYSASYRYTGVPARFTGSGSGTDFTFTISSVQAEDLAVYFCQQHFTTPLTFGAGTSLEVR
notes: as for B3
- Kd (Human VSIG4-L-His [25]): 1.72 nM
- Kd (Human VSIG4-S-His [26]): 5.86 nM
- Kd [27]: 2.02 nM

B5: 16F6.E1 murine hybridoma antibody (antibody, V domains shown)
VH: QVQLQQPGAEMVRPGASLKLSCKASGYTFTSYWMHWVKQRPGQGLEWIGKIDPSKNTTHYNQNFRDKATLTVDRSSSTAYMQLNSLTSEDSAVYFCVTWDGDFTYWGQGTLVTISA
VL: NIVLTQSPPSLAVSLGQRATISCRASESVDSYGNSFMHWYQQKPGQPPKLLIYLASNLESGVPARFSGSGSRTDFTLTIDPVEADDAATYFCHQNNEDPWTFGGGTKLEIK
notes: murine IgG purified from hybridoma supernatant; also called 16F6.H6
- Kd (Human VSIG4-L-His [25]): 0.472 nM
- Kd (Human VSIG4-S-His [26]): 2.87 nM
- Kd [27]: 0.802 nM
